This is an account of results in IntAct's records for PubMed 39009827.

Sequences and labels used below:
B1: BRCA1-A complex subunit Abraxas 1 (Homo sapiens), Q6UWZ7 (parent)
chain: MEGESTSAVLSGFVLGALAFQHLNTDSDTEGFLLGEVKGEAKNSITDSQMDDVEVVYTIDIQKYIPCYQLFSFYNSSGEVNEQALKKILSNVKKNVVGWYKFRRHSDQIMTFRERLLHKNLQEHFSNQDLVFLLLTPSIITESCSTHRLEHSLYKPQKGLFHRVPLVVANLGMSEQLGYKTVSGSCMSTGFSRAVQTHSSKFFEEDGSLKEVHKINEMYASLQEELKSICKKVEDSEQAVDKLVKDVNRLKREIEKRRGAQIQAAREKNIQKDPQENIFLCQALRTFFPNSEFLHSCVMSLKNRHVSKSSCNYNHHLDVVDNLTLMVEHTDIPEASPASTPQIIKHKALDLDDRWQFKRSRLLDTQDKRSKADTGSSNQDKASKMSSPETDEEIEKMKGFGEYSRSPTF
B2: Zinc finger protein 526 (Homo sapiens), Q8TF50 (parent)
chain: MAEVVAEVAEMPTQMSPGAVEMSTPMSAEMMEMSTEVTEMTPGEALASSLFFQHHQFMCSECGSLYNTLEEVLSHQEQHMLAVSEEEALTTQNVGLEPELVPGAEGPFQCGECSQLILSPGELLAHQDAHLRESANQIQYQCWDCQELFPSPELWVAHRKAQHLSATVAEPPVPPPLPPPTPLPPPSPPSEVKMEPYECPECSTLCATPEEFLEHQGTHFDSLEKEERNGLEEEEEDDEEDEEDDEEMEDEEAMAEVGDDAVGGDESTAGWAQGCGDCPQHQPSAGARRQHRRTAHSPASATHPFHCSQCQRSFSSANRLQAHGRAHVGGTHECTTCSKVFKKAASLEQHLRLHRGEARYLCVDCGRGFGTELTLVAHRRAHTANPLHRCRCGKTFSNMTKFLYHRRTHAGKSGAPPTGATAPPAPAEPTPPPPPPAPPAQLPCPQCSKSFASASRLSRHRRAVHGPPERRHRCGVCGKGFKKLIHVRNHLRTHTGERPFQCHSCGKTFASLANLSRHQLTHTGARPYQCLDCGKRFTQSSNLQQHRRLHLRPVAFARAPRLPITGLYNKSPYYCGTCGRWFRAMAGLRLHQRVHARARTLTLQPPRSPSPAPPPPPEPQQTIMCTELGETIAIIETSQPLALEDTLQLCQAALGASEAGGLLQLDTAFV
B3: Radial spoke head protein 4 homolog A (Homo sapiens), Q5TD94 (parent)
chain: MEDSTSPKQEKENQEELGETRRPWEGKTAASPQYSEPESSEPLEAKQGPETGRQSRSSRPWSPQSRAKTPLGGPAGPETSSPAPVSPREPSSSPSPLAPARQDLAAPPQSDRTTSVIPEAGTPYPDPLEQSSDKRESTPHHTSQSEGNTFQQSQQPKPHLCGRRDVSYNNAKQKELRFDVFQEEDSNSDYDLQQPAPGGSEVAPSMLEITIQNAKAYLLKTSSNSGFNLYDHLSNMLTKILNERPENAVDIFENISQDVKMAHFSKKFDALQNENELLPTYEIAEKQKALFLQGHLEGVDQELEDEIAENALPNVMESAFYFEQAGVGLGTDETYRIFLALKQLTDTHPIQRCRFWGKILGLEMNYIVAEVEFREGEDEEEVEEEDVAEERDNGESEAHEDEEDELPKSFYKAPQAIPKEESRTGANKYVYFVCNEPGRPWVKLPPVIPAQIVIARKIKKFFTGRLDAPIISYPPFPGNESNYLRAQIARISAGTHVSPLGFYQFGEEEGEEEEEAEGGRNSFEENPDFEGIQVIDLVESLSNWVHHVQHILSQGRCNWFNSIQKNEEEEEEEDEEKDDSDYIEQEVGLPLLTPISEDLEIQNIPPWTTRLSSNLIPQYAIAVLQSNLWPGAYAFSNGKKFENFYIGWGHKYSPDNYTPPVPPPVYQEYPSGPEITEMDDPSVEEEQAFRAAQEAVLLAAENEESEEDEDEEDDYD
B4: LIM domain-binding protein 3 (Homo sapiens), O75112 (parent)
chain: MSYSVTLTGPGPWGFRLQGGKDFNMPLTISRITPGSKAAQSQLSQGDLVVAIDGVNTDTMTHLEAQNKIKSASYNLSLTLQKSKRPIPISTTAPPVQTPLPVIPHQKDPALDTNGSLVAPSPSPEARASPGTPGTPELRPTFSPAFSRPSAFSSLAEASDPGPPRASLRAKTSPEGARDLLGPKALPGSSQPRQYNNPIGLYSAETLREMAQMYQMSLRGKASGVGLPGGSLPIKDLAVDSASPVYQAVIKSQNKPEDEADEWARRSSNLQSRSFRILAQMTGTEFMQDPDEEALRRSSTPIEHAPVCTSQATTPLLPASAQPPAAASPSAASPPLATAAAHTAIASASTTAPASSPADSPRPQASSYSPAVAASSAPATHTSYSEGPAAPAPKPRVVTTASIRPSVYQPVPASTYSPSPGANYSPTPYTPSPAPAYTPSPAPAYTPSPVPTYTPSPAPAYTPSPAPNYNPAPSVAYSGGPAEPASRPPWVTDDSFSQKFAPGKSTTSISKQTLPRGGPAYTPAGPQVPPLARGTVQRAERFPASSRTPLCGHCNNVIRGPFLVAMGRSWHPEEFTCAYCKTSLADVCFVEEQNNVYCERCYEQFFAPLCAKCNTKIMGEVMHALRQTWHTTCFVCAACKKPFGNSLFHMEDGEPYCEKDYINLFSTKCHGCDFPVEAGDKFIEALGHTWHDTCFICAVCHVNLEGQPFYSKKDRPLCKKHAHTINL
B5: Zinc finger protein GLIS2 (Homo sapiens), Q9BZE0 (parent)
chain: MHSLDEPLDLKLSITKLRAAREKRERTLGVVRPRALHRELGLVDDSPTPGSPGSPPSGFLLNSKFPEKVEGRFSAAPLVDLSLSPPSGLDSPNGSSSLSPERQGNGDLPPVPSASDFQPLRYLDGVPSSFQFFLPLGSGGALHLPASSFLTPPKDKCLSPDLPLPKQLVCRWAKCNQLFELLQDLVDHVNDYHVKPEKDAGYCCHWEGCARHGRGFNARYKMLIHIRTHTNEKPHRCPTCSKSFSRLENLKIHNRSHTGEKPYVCPYEGCNKRYSNSSDRFKHTRTHYVDKPYYCKMPGCHKRYTDPSSLRKHIKAHGHFVSHEQQELLQLRPPPKPPLPAPDGGPYVSGAQIIIPNPAALFGGPGLPGLPLPLAPGPLDLSALACGNGGGSGGGGGMGPGLPGPVLPLNLAKNPLLPSPFGAGGLGLPVVSLLAGAAGGKAEGEKGRGSVPTRALGMEGHKTPLERTESSCSRPSPDGLPLLPGTVLDLSTGVNSAASSPEALAPGWVVIPPGSVLLKPAVVN
B6: Tyrosine-protein phosphatase non-receptor type 22 (Homo sapiens), Q9Y2R2 (parent)
chain: MDQREILQKFLDEAQSKKITKEEFANEFLKLKRQSTKYKADKTYPTTVAEKPKNIKKNRYKDILPYDYSRVELSLITSDEDSSYINANFIKGVYGPKAYIATQGPLSTTLLDFWRMIWEYSVLIIVMACMEYEMGKKKCERYWAEPGEMQLEFGPFSVSCEAEKRKSDYIIRTLKVKFNSETRTIYQFHYKNWPDHDVPSSIDPILELIWDVRCYQEDDSVPICIHCSAGCGRTGVICAIDYTWMLLKDGIIPENFSVFSLIREMRTQRPSLVQTQEQYELVYNAVLELFKRQMDVIRDKHSGTESQAKHCIPEKNHTLQADSYSPNLPKSTTKAAKMMNQQRTKMEIKESSSFDFRTSEISAKEELVLHPAKSSTSFDFLELNYSFDKNADTTMKWQTKAFPIVGEPLQKHQSLDLGSLLFEGCSNSKPVNAAGRYFNSKVPITRTKSTPFELIQQRETKEVDSKENFSYLESQPHDSCFVEMQAQKVMHVSSAELNYSLPYDSKHQIRNASNVKHHDSSALGVYSYIPLVENPYFSSWPPSGTSSKMSLDLPEKQDGTVFPSSLLPTSSTSLFSYYNSHDSLSLNSPTNISSLLNQESAVLATAPRIDDEIPPPLPVRTPESFIVVEEAGEFSPNVPKSLSSAVKVKIGTSLEWGGTSEPKKFDDSVILRPSKSVKLRSPKSELHQDRSSPPPPLPERTLESFFLADEDCMQAQSIETYSTSYPDTMENSTSSKQTLKTPGKSFTRSKSLKILRNMKKSICNSCPPNKPAESVQSNNSSSFLNFGFANRFSKPKGPRNPPPTWNI

Variants of B1 are the subject of the first assay. The settings on record: with ima3_human KPNA4, O00629.
Target sequence in this assay (O00629 whole entry): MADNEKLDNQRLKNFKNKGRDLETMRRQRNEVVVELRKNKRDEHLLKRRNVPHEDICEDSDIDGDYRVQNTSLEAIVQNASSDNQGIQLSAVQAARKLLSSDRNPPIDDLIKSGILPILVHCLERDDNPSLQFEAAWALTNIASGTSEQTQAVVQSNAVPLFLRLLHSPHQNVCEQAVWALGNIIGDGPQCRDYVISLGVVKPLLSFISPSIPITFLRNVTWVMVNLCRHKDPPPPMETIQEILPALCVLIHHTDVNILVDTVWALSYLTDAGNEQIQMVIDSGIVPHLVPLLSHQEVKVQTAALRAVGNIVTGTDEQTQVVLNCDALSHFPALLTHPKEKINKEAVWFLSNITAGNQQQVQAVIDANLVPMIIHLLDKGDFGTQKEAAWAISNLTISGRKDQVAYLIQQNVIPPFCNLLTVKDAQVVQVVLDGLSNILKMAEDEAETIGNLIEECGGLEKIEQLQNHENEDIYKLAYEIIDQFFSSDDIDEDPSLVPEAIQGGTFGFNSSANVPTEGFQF
With R361Q, the “effect of a mutation on the interaction” value is recorded as “decreasing interaction strength”.

Variants of B2 are the subject of another assay. The settings on record: with ima3_human KPNA4, O00629.
Target sequence in this assay (O00629 whole entry): as above
Take K160T: the “effect of a mutation on the interaction” value is “disrupting interaction strength”.

Variants of B2 are the subject of the next assay. Particulars: with ima3_human KPNA4, O00629. The source holds these as a separate data set.
Target sequence in this assay (O00629 whole entry): as above
Turning to K160T, the “effect of a mutation on the interaction” value was “decreasing interaction strength”.

A further assay covers variants of B3. Particulars: with nedd4_human NEDD4, P46934.
nedd4_human NEDD4, P46934, sequence (P46934 whole entry): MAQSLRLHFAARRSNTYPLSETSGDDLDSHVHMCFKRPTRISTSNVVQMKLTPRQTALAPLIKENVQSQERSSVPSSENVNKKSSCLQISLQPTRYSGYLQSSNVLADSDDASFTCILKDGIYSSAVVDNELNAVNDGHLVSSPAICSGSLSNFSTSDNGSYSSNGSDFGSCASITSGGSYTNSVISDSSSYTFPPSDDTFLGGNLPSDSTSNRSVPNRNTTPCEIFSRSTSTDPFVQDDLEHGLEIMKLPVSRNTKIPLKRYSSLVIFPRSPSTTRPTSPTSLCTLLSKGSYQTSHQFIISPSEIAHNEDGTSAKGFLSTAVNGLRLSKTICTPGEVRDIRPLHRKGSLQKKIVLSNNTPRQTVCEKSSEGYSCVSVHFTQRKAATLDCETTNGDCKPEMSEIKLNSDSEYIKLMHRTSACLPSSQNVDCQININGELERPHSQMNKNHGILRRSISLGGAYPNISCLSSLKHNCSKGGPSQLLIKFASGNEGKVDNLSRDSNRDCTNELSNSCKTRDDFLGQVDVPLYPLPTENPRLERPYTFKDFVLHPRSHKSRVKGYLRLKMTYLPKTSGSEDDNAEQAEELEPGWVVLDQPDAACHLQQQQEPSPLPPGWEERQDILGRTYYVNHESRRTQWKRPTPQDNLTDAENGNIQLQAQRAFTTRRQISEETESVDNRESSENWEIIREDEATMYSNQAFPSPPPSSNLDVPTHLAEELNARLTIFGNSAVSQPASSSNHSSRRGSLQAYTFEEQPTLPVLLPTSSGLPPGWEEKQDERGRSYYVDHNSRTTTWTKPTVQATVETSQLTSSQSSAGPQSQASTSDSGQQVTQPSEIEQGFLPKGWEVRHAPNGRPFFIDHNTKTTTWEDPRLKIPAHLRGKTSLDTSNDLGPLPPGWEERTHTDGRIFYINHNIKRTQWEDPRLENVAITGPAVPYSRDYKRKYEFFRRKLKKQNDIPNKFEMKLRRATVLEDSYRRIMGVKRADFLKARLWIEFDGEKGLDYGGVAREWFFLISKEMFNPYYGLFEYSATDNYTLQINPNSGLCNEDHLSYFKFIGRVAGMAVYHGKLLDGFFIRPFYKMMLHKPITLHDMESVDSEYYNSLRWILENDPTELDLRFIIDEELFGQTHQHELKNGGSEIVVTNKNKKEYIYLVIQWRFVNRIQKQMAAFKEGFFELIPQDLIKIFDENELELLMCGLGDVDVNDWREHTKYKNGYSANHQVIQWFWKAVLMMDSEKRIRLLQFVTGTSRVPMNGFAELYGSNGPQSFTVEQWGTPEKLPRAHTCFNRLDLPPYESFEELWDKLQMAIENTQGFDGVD
For P664S, the “effect of a mutation on the interaction” value is recorded as “decreasing interaction strength”.

In another assay the parent is B4. The settings on record: with src_human SRC.
Consider P99S, for which the “effect of a mutation on the interaction” value is “decreasing interaction strength”.

Another assay covers variants of B5. Particulars: with ptbp1_human PTBP1, P26599.
ptbp1_human PTBP1, P26599, sequence (P26599 whole entry): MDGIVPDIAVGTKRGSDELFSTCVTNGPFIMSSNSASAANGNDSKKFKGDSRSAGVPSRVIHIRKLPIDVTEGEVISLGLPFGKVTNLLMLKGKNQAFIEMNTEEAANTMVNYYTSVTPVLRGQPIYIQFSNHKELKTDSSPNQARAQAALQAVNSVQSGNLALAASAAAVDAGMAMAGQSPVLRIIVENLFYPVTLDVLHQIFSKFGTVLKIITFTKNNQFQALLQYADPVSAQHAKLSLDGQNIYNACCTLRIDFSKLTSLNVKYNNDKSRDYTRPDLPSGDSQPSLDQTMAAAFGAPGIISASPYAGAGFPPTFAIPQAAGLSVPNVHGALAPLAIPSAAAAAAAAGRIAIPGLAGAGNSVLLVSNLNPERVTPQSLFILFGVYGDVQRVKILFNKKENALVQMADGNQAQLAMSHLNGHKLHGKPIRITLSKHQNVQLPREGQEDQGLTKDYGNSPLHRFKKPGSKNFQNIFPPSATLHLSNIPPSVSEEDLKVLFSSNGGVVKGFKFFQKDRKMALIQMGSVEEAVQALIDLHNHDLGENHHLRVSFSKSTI
As to P420L, the “effect of a mutation on the interaction” value was “decreasing interaction strength”.

In the next assay the parent is B6. Particulars: with itsn1_human ITSN1, Q15811.
itsn1_human ITSN1, Q15811, sequence (Q15811 whole entry): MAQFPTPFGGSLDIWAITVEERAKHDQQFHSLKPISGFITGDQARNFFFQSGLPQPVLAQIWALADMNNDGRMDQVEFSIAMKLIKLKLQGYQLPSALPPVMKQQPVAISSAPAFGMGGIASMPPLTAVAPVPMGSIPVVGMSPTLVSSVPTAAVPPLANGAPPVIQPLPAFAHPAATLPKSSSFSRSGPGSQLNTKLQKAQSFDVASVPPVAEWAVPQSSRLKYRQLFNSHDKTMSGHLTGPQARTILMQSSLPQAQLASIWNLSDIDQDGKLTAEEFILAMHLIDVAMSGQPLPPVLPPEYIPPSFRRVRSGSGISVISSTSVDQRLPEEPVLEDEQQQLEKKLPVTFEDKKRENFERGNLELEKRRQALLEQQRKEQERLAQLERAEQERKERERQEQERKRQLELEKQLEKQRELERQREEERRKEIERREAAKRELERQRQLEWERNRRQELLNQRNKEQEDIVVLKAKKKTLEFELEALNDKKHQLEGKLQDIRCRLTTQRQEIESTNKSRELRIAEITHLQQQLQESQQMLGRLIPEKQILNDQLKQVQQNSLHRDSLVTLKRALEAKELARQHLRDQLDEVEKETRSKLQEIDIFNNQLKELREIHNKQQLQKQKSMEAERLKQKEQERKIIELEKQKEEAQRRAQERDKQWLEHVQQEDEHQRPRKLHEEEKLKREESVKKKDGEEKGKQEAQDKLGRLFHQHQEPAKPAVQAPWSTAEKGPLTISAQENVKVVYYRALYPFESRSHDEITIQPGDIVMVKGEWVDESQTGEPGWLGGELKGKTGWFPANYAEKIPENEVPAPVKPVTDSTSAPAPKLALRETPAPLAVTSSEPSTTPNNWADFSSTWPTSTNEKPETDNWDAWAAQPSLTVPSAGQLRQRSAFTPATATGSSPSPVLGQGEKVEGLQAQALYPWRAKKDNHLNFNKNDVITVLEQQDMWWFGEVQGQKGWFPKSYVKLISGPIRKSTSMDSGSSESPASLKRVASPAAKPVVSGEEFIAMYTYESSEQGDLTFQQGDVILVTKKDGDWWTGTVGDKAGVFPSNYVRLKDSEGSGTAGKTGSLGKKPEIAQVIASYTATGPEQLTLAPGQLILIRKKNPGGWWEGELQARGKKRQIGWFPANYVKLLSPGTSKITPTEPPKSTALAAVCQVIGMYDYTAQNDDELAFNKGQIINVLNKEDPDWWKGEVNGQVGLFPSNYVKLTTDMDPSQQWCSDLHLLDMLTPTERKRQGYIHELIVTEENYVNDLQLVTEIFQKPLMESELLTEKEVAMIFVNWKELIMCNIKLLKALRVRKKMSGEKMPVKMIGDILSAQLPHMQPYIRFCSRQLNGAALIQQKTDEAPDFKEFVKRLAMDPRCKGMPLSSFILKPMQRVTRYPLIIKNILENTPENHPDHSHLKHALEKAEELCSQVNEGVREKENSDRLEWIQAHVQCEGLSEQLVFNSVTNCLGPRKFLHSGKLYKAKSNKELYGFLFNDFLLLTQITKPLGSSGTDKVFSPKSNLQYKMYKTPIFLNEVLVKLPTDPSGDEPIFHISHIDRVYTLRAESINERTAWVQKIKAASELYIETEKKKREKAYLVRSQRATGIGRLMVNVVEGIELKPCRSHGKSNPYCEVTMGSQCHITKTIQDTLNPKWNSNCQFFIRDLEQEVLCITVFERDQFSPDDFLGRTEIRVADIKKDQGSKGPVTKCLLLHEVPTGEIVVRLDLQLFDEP
As to R620W, the “effect of a mutation on the interaction” value is listed as “decreasing interaction strength”.
